These results are taken from patent US20210130436A1.

Assay [1] addresses CD28 on Jurkat/IL2 reporter cells (human) (UniProt P10747). The assay is described as follows: cell-based or functional assay.
The target of assay [2] is PD-L1 on K562/OKT3/PD-L1 artificial antigen presenting cells (UniProt Q9NZQ7). The experiment in a line: cell-based or functional assay.
Chain of PD-L1 on K562/OKT3/PD-L1 artificial antigen presenting cells (Q9NZQ7 19-290): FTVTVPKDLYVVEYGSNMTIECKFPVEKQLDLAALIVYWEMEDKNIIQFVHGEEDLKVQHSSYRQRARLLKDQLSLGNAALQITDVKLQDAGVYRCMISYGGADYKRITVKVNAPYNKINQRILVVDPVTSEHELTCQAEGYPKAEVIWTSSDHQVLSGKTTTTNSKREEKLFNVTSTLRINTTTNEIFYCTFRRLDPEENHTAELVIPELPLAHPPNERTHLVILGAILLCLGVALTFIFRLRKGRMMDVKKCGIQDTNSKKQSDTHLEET

For “CD80 E35D/T41S/M47V/A71G/K89N IgV-Fc (inert) (Fc fusion)”, in assay [1], the Fold Increase over WT CD80-IgV-Fc (RLU, Jurkat/IL2 + K562/OKT3/PD-L1 reporter assay, 50 nM) came out at 5 fold and the Relative Luciferase Units (RLU), Jurkat/IL2 + K562/OKT3/PD-L1 reporter assay, CD80-Fc Conc 50 nM is 1020 RLU. Moreover, in assay [2], the Fold Increase over WT CD80-IgV-Fc (RLU, Jurkat/IL2 + K562/OKT3/PD-L1 reporter assay, 50 nM) amounted to 5 fold and the Relative Luciferase Units (RLU), Jurkat/IL2 + K562/OKT3/PD-L1 reporter assay, CD80-Fc Conc 50 nM stood at 1020 RLU.
As to “CD80 E35D/M38T/M43V/M47V/N48R/L85Q IgV-Fc (inert) (Fc fusion)”, in assay [1], the Fold Increase over WT CD80-IgV-Fc (RLU, Jurkat/IL2 + K562/OKT3/PD-L1 reporter assay, 50 nM) is 3.3 fold and the Relative Luciferase Units (RLU), Jurkat/IL2 + K562/OKT3/PD-L1 reporter assay, CD80-Fc Conc 50 nM stood at 680 RLU. Further, in assay [2], the Fold Increase over WT CD80-IgV-Fc (RLU, Jurkat/IL2 + K562/OKT3/PD-L1 reporter assay, 50 nM) amounted to 3.3 fold and the Relative Luciferase Units (RLU), Jurkat/IL2 + K562/OKT3/PD-L1 reporter assay, CD80-Fc Conc 50 nM turned out to be 680 RLU.
As for “CD80 I30V/E35D/M47V/A71G/A91V IgV-Fc (inert) (Fc fusion)”, in assay [1], the Fold Increase over WT CD80-IgV-Fc (RLU, Jurkat/IL2 + K562/OKT3/PD-L1 reporter assay, 50 nM) stood at 7.3 fold and the Relative Luciferase Units (RLU), Jurkat/IL2 + K562/OKT3/PD-L1 reporter assay, CD80-Fc Conc 50 nM came to 1500 RLU. Further, in assay [2], the Fold Increase over WT CD80-IgV-Fc (RLU, Jurkat/IL2 + K562/OKT3/PD-L1 reporter assay, 50 nM) was 7.3 fold and the Relative Luciferase Units (RLU), Jurkat/IL2 + K562/OKT3/PD-L1 reporter assay, CD80-Fc Conc 50 nM was 1500 RLU.
Turning to “CD80 V22L/Q27H/E35D/M47I/A71G IgV-Fc (inert) (Fc fusion)”, in assay [1], the Fold Increase over WT CD80-IgV-Fc (RLU, Jurkat/IL2 + K562/OKT3/PD-L1 reporter assay, 50 nM) stood at 5.5 fold and the Relative Luciferase Units (RLU), Jurkat/IL2 + K562/OKT3/PD-L1 reporter assay, CD80-Fc Conc 50 nM stood at 1120 RLU. Further, in assay [2], the Fold Increase over WT CD80-IgV-Fc (RLU, Jurkat/IL2 + K562/OKT3/PD-L1 reporter assay, 50 nM) was 5.5 fold and the Relative Luciferase Units (RLU), Jurkat/IL2 + K562/OKT3/PD-L1 reporter assay, CD80-Fc Conc 50 nM stood at 1120 RLU.
For the substance “CD80 Q27H/E35D/M47I/L85Q/D90G IgV-Fc (inert) (Fc fusion)”, in assay [1], the Fold Increase over WT CD80-IgV-Fc (RLU, Jurkat/IL2 + K562/OKT3/PD-L1 reporter assay, 50 nM) worked out at 6.4 fold and the Relative Luciferase Units (RLU), Jurkat/IL2 + K562/OKT3/PD-L1 reporter assay, CD80-Fc Conc 50 nM worked out at 1310 RLU. Also, in assay [2], the Fold Increase over WT CD80-IgV-Fc (RLU, Jurkat/IL2 + K562/OKT3/PD-L1 reporter assay, 50 nM) turned out to be 6.4 fold and the Relative Luciferase Units (RLU), Jurkat/IL2 + K562/OKT3/PD-L1 reporter assay, CD80-Fc Conc 50 nM was determined as 1310 RLU.
As for “CD80 E35D/M47L/A71G/L85M/F92Y IgV-Fc (inert) (Fc fusion)”, in assay [1], the Fold Increase over WT CD80-IgV-Fc (RLU, Jurkat/IL2 + K562/OKT3/PD-L1 reporter assay, 50 nM) came out at 6.4 fold and the Relative Luciferase Units (RLU), Jurkat/IL2 + K562/OKT3/PD-L1 reporter assay, CD80-Fc Conc 50 nM worked out at 1320 RLU. In assay [2], the Fold Increase over WT CD80-IgV-Fc (RLU, Jurkat/IL2 + K562/OKT3/PD-L1 reporter assay, 50 nM) came to 6.4 fold and the Relative Luciferase Units (RLU), Jurkat/IL2 + K562/OKT3/PD-L1 reporter assay, CD80-Fc Conc 50 nM came to 1320 RLU.
“CD80 E35D/D46E/M47V/A71D IgV-Fc (inert) (Fc fusion)”: in assay [1], the Fold Increase over WT CD80-IgV-Fc (RLU, Jurkat/IL2 + K562/OKT3/PD-L1 reporter assay, 50 nM) was determined as 3.3 fold and the Relative Luciferase Units (RLU), Jurkat/IL2 + K562/OKT3/PD-L1 reporter assay, CD80-Fc Conc 50 nM was 683 RLU. Moreover, in assay [2], the Fold Increase over WT CD80-IgV-Fc (RLU, Jurkat/IL2 + K562/OKT3/PD-L1 reporter assay, 50 nM) worked out at 3.3 fold and the Relative Luciferase Units (RLU), Jurkat/IL2 + K562/OKT3/PD-L1 reporter assay, CD80-Fc Conc 50 nM is 683 RLU.
Turning to “CD80 E35D/M47V/N48T/L85Q IgV-Fc (inert) (Fc fusion)”, in assay [1], the Fold Increase over WT CD80-IgV-Fc (RLU, Jurkat/IL2 + K562/OKT3/PD-L1 reporter assay, 50 nM) is 4.4 fold and the Relative Luciferase Units (RLU), Jurkat/IL2 + K562/OKT3/PD-L1 reporter assay, CD80-Fc Conc 50 nM is 897 RLU. In assay [2], the Fold Increase over WT CD80-IgV-Fc (RLU, Jurkat/IL2 + K562/OKT3/PD-L1 reporter assay, 50 nM) was 4.4 fold and the Relative Luciferase Units (RLU), Jurkat/IL2 + K562/OKT3/PD-L1 reporter assay, CD80-Fc Conc 50 nM was found to be 897 RLU.
“CD80 E35D/M38T/D46E/M47V/N48S IgV-Fc (inert) (Fc fusion)”: in assay [1], the Fold Increase over WT CD80-IgV-Fc (RLU, Jurkat/IL2 + K562/OKT3/PD-L1 reporter assay, 50 nM) was found to be 6.4 fold and the Relative Luciferase Units (RLU), Jurkat/IL2 + K562/OKT3/PD-L1 reporter assay, CD80-Fc Conc 50 nM came to 1320 RLU. In addition, in assay [2], the Fold Increase over WT CD80-IgV-Fc (RLU, Jurkat/IL2 + K562/OKT3/PD-L1 reporter assay, 50 nM) is 6.4 fold and the Relative Luciferase Units (RLU), Jurkat/IL2 + K562/OKT3/PD-L1 reporter assay, CD80-Fc Conc 50 nM was 1320 RLU.
Consider “CD80 E35D/D46V/M47L/V68M/L85Q/E88D IgV-Fc (inert) (Fc fusion)”, for which the Fold Increase over WT CD80-IgV-Fc (RLU, Jurkat/IL2 + K562/OKT3/PD-L1 reporter assay, 50 nM) in assay [1] and in assay [2] was 7.1 fold each time. Also, the Relative Luciferase Units (RLU), Jurkat/IL2 + K562/OKT3/PD-L1 reporter assay, CD80-Fc Conc 50 nM in assay [1] and in assay [2] was 1460 RLU each time.
For “CD80 H18Y/A26E/E35D/M47L/L85Q/D90G IgV-Fc (inert) (Fc fusion)”, in assay [1], the Fold Increase over WT CD80-IgV-Fc (RLU, Jurkat/IL2 + K562/OKT3/PD-L1 reporter assay, 50 nM) is 7.3 fold and the Relative Luciferase Units (RLU), Jurkat/IL2 + K562/OKT3/PD-L1 reporter assay, CD80-Fc Conc 50 nM was determined as 1510 RLU. Also, in assay [2], the Fold Increase over WT CD80-IgV-Fc (RLU, Jurkat/IL2 + K562/OKT3/PD-L1 reporter assay, 50 nM) was found to be 7.3 fold and the Relative Luciferase Units (RLU), Jurkat/IL2 + K562/OKT3/PD-L1 reporter assay, CD80-Fc Conc 50 nM is 1510 RLU.
In the case of “CD80 E35D/T41S/M43I/M47V/A71G IgV-Fc (inert) (Fc fusion)”, in assay [1], the Fold Increase over WT CD80-IgV-Fc (RLU, Jurkat/IL2 + K562/OKT3/PD-L1 reporter assay, 50 nM) is 6.2 fold and the Relative Luciferase Units (RLU), Jurkat/IL2 + K562/OKT3/PD-L1 reporter assay, CD80-Fc Conc 50 nM came to 1270 RLU. Moreover, in assay [2], the Fold Increase over WT CD80-IgV-Fc (RLU, Jurkat/IL2 + K562/OKT3/PD-L1 reporter assay, 50 nM) was 6.2 fold and the Relative Luciferase Units (RLU), Jurkat/IL2 + K562/OKT3/PD-L1 reporter assay, CD80-Fc Conc 50 nM was 1270 RLU.
